Consider nine molecules from patent US12144869B2, “Anti-ROR1 antibody conjugates, compositions comprising anti ROR1 antibody conjugates, and methods of making and using anti-ROR1 antibody conjugates” (Sutro Biopharma, Inc., priority 2022, dated 2024).

For orientation: EC50 means the midpoint of the concentration-response curve.

Series [1] concerns ROR1 positive Ntera-2 cell. Briefly: In vitro cell killing of ROR1 ADCs on Ntera-2. It is filed as cell-based. The settings on record: for EC50: read-out: NTERA-2 EC50. The procedure: (§1) Anti-ROR1 antibody was conjugated to different linker-warheads described herein at different DARs and the cell killing activity of the ADCs were evaluated on ROR1 positive Ntera-2 cell and ROR1 negative MCF7 cells.
(§2) Ntera-2 or MCF7 cell at 625 cells/25 μL were seeded in a 384-well flat bottom white polystyrene plate one day before the assay start. ADCs were formulated at 2× starting concentration. Filter sterilized samples were serial diluted (1:3) under sterile conditions and added onto cells in triplicates. Plates were cultured at 37° C. in a CO2 incubator for 120 hours. For cell viability measurement, 30 microliter of Cell Titer-Glo® reagent (Promega Corp, Madison, WI) was added into each well, and plates processed as per product instructions. Relative luminescence was measured on an ENVISION® plate reader (Perkin-Elmer; Waltham, MA). Relative luminescence readings were converted to % viability using untreated cells as controls. Data was fitted with non-linear regression analysis, using log (inhibitor) vs. response, variable slope, 4-parameter fit equation using GraphPad Prism.
To evaluate if the cell killing activity of anti-ROR1 ADCs is dependent on antibody binding to ROR1 expressed on cell surface, the same linker-warheads (LP3, LP4) were conjugated to an anti-GFP antibody and the cell killing of the anti-ROR1 and anti-GFP ADCs were evaluated in cell killing assays on ROR1 positive Ntera-2 cell and ROR1 negative MCF7 cells. […]

In series [2] the test system is ROR1 negative MCF7 cells. Briefly: In vitro cell killing of ROR1 ADCs on MCF7. The settings on record: for EC50: read-out: MCF-7 EC50. It is filed as cell-based. The procedure:
as §1, §2
To evaluate if the cell killing activity of anti-ROR1 ADCs is dependent on antibody binding to ROR1 expressed on cell surface, the same linker-warheads (LP3, LP4) were conjugated to an anti-GFP antibody and the cell killing of the anti-ROR1 and anti-GFP ADCs were evaluated in cell killing assays on ROR1 positive Ntera-2 cell and ROR1 negative MCF7 cells.

Series [3] can be described thus: Differential scanning fluorimetry (protein thermal shift; TM1/TM2). It is filed as physicochemical. To be noted: Table 11; melting temperature of the Fab domain. The procedure:
A protein thermal shift assay was carried out by mixing the protein to be assayed with an environmentally sensitive dye (SYPRO Orange, Life Technologies Cat #S-6650) in a phosphate buffered solution (PBS), and monitoring the fluorescence of the mixture in real time as it underwent controlled thermal denaturation. Protein solutions between 0.2-2 mg/mL were mixed at a 1-1 volumetric ratio with a 1-500 PBS-diluted solution of SYPRO Orange (SYPRO Orange stock dye is 5000× in DMSO). 10 μL aliquots of the protein-dye mixture were dispensed in quadruplicate in a 384-well microplate (Bio-Rad Cat #MSP-3852), and the plate was sealed with an optically clear sealing film (Bio-Rad Cat #MSB-1001) and placed in a 384-well plate real-time thermocycler (Bio-Rad CFX384 Real Time System). The protein-dye mixture was heated from […], at increments of 0.1° C. per cycle (˜1.5° C. per minute), allowing 3 seconds of equilibration at each temperature before taking a fluorescence measurement. At the end of the experiment, the transition melting temperatures (TM1 and TM2) were determined using the Bio-Rad CFX manager software. TM1 represents the melting temperature of the Fc domain. TM2 represents the melting temperature of the Fab domain.
For the thermal stability of an antibody, the first melting peak (Tm1) coincides with the unfolding of the CH2 domain (FC stability), while the second melting peak (Tm2) occurs upon unfolding of the Fab domain.

Series [4] concerns the target T1, human ROR1-Fz (Homo sapiens, UniProt Q01973).
T1 construct: Frizzled (Fz, residues 165-305); His6 (C); purchased Acro Biosystems; host or cells: HEK293
As to the kind of experiment: Biacore off-rate and kinetic analysis, ROR1-Fz. The settings on record: Table 11; SP34 light chain. It is filed as binding. The procedure: Anti-Fc polyclonal antibodies were immobilized onto a CMS chip (GE Life Sciences) using amine coupling chemistry (from Amine Coupling Kit, GE Life Sciences). The immobilization steps were carried out at a flow rate of 25 μL/min in 1×HBS-EP+buffer (GE Life Sciences; 10× Stock diluted before use). The sensor surfaces were activated for 7 min with a mixture of NHS (0.05 M) and EDC (0.2 M). The Anti-Fc antibodies were injected over all 4 flow cells at a concentration of 25 ug/ml in 10 mM sodium acetate, pH 4.5, for 7 min. Ethanolamine (1 M, pH 8.5) was injected for 7 min to block any remaining activated groups. An average of 12,000 response units (RU) of capture antibody was immobilized on each flow cell.
Off-rate and kinetic binding experiments were performed at 25° C. using 1×HBS-EP+buffer. Test and control antibodies were injected over the anti-Fc surface at concentrations of 5-10 μg/mL for 12 seconds at a flow rate of 10 μL/min on flow cells 2, 3 and 4, followed by a buffer wash for 30 seconds at the same flow rate. Kinetic characterization of antibody samples was carried out with a range of antigen concentrations from 1-100 nM and 1 injection of 0 nM antigen (for example, 100, 50, 25, 6.25, 1.56 and 0 nM). After capturing ligand (antibody) on the anti-Fc surface, the analyte (hROR1, Fz or Kr domains, Acro Biosystems, Delaware) was bound for 180 seconds, followed by a 600 second dissociation phase at a flow rate of 50 μL/min. Between each ligand capture and analyte binding cycle, regeneration was carried out using 2 injections of 10 mM Glycine pH 2.0 for 30 seconds at 30 μL/min, followed by a 30 second buffer wash step.
The data was fit with the Biacore T200 Evaluation software, using a 1-1 Langmuir binding model. KD (affinity, nM) was determined as a ratio of the kinetic rate constants calculated from the fits of the association and dissociation phases.
For anti-CD3-LC-containing IgGs that had detectable ROR1-binding in ELISA (1944-A07 and 1987-C05 variants), those antibodies were further tested for binding by surface plasmon resonance (SPR). Binding kinetics were assessed to the ROR1-frizzled domain (hROR1-Fz) or the ROR1-extracellular domain (hROR1) for 1944-A07 and 1987-C05 variants, respectively. Briefly, anti-ROR1 antibodies were captured via anti-human Fc polyclonal antibodies immobilized to a CM5 chip, and ROR1 recombinant proteins were flowed across the surface to assess binding kinetics. hROR1 or hROR1-Fz domain (Acro Biosystems, Delaware) binding was tested at 100, 50, 25, 6.25, 1.5625 nM. The data was fit with the Biacore™ T200 Evaluation software, using a 1-1 Langmuir binding model. KD (affinity, nM) was determined as a ratio of the kinetic rate constants calculated from the fits of the association and dissociation phases.
(SPR reads the build-up and loss of mass on a sensor chip optically.)

Where [5] appears, read: Table 13, ROR1 positive Ntera-2, 120 hours.
Setting [6] is: Table 13, ROR1 negative MCF7, 120 hours.
Setting [7] is: NTERA2, Table 13, ROR1 positive Ntera-2, 120 hours.
Where [8] appears, read: Homo sapiens, Table 13, ROR1 negative MCF7, 120 hours.

Where two headings read alike, the source gives them in different places.

T1 sequence (Q01973 165-305): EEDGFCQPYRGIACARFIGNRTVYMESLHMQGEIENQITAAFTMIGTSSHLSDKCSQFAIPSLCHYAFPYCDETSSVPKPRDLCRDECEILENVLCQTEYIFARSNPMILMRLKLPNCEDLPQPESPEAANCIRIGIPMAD

Turning to `CC[C@@]1(O)C(=O)OCc2c1cc1n(c2=O)Cc2c-1nc1cc(F)c(C)c3c1c2[C@@H](NC(=O)CO)CC3` [Dxd], in series [1] (setting [5]), the “NTERA-2 Span” value is on record as 99% and the concentration giving a half-maximal response (EC50) came to 0.26 nM. Also, in series [2] (setting [6]), the “MCF-7 Span” value is on record as 63% and the EC50 came to 0.83 nM.
As to `CC[C@@]1(O)C(=O)OCc2c1cc1n(c2=O)Cc2c-1nc1cc(F)c(C)c3c1c2[C@@H](NC(=O)CN)CC3` [Gly-Exatecan], the results for the EC50 in series [1] (setting [7]) and in series [2] (setting [8]) were 6.72 nM and 0.169 nM, respectively. The “NTERA-2 Span” value in series [1] (setting [5]) was 98%. Moreover, the “MCF-7 Span” value in series [2] (setting [6]) came to 73%.
As to `COc1cccc2c1C(=O)c1c(O)c3c(c(O)c1C2=O)C[C@@](O)(C(=O)NCCN)C[C@@H]3O[C@H]1C[C@H]2[C@H](O[C@@H]3[C@@H](OC)OCCN32)[C@H](C)O1` [PNU-EDA], the EC50 in series [1] (setting [7]) stood at 0.026 nM; in series [1] (NTERA2, Table 15, ROR1 positive Ntera-2 cells, 120 hours, Cell Titer-Glo), 0.027 nM; in series [2] (setting [8]), 0.3 nM; in series [2] (Homo sapiens, Table 15, ROR1 negative MCF7 cells, 120 hours, Cell Titer-Glo), 0.25 nM. Further, the “NTERA-2 Span” value in series [1] (setting [5]) is 99%. For the same molecule, in series [1] (Table 15, ROR1 positive Ntera-2 cells, 120 hours, Cell Titer-Glo), the “NTERA-2 Span (%)” value is 98%. Further, in series [2] (setting [6]), the “MCF-7 Span” value is listed as 85%. Besides, the “MCF-7 Span (%)” value in series [2] (Table 15, ROR1 negative MCF7 cells, 120 hours, Cell Titer-Glo) was 85%.

B1: SRP2196-B10 (antibody, V domains shown)
VH: EVQLVESGGGLVQPGGSLRLSCAASGFNITGYYIHWVRQAPGKGLEWVGSITPLSGATSKADSVKGRFTISADTSKNTAYLQMNSLRAEDTAVYYCARDSRRYIRSWDYWGQGTLVTVSS
VL: QAVVTQESALTTSPGETVTLTCRSSTGAVTTSNYANWVQEKPDHLFTGLIGGTNKRAPGVPARFSGSLIGDKAALTITGAQTEDEAIYFCALWYSNLWVFGGGTKLTVL
For B1, the “TM2 (° C.)” value in series [3] was 70 °C. In series [4], the “Biacore human ROR1-Fz ka” value is 128000 M⁻¹ s⁻¹ and the “Biacore human ROR1-Fz kd” value is 0.000334 s⁻¹.

B2: SRP2196-A03 (antibody, V domains shown)
VH: EVQLVESGGGLVQPGGSLRLSCAASGFNITQYHIHWVRQAPGKGLEWVGYISPNSGSTHEADSVKGRFTISADTSKNTAYLQMNSLRAEDTAVYYCARDSRRYVRGWDYWGQGTLVTVSS
VL: QAVVTQESALTTSPGETVTLTCRSSTGAVTTSNYANWVQEKPDHLFTGLIGGTNKRAPGVPARFSGSLIGDKAALTITGAQTEDEAIYFCALWYSNLWVFGGGTKLTVL
B2: the “TM2 (° C.)” value in series [3] came to 70 °C. In addition, in series [4], the “Biacore human ROR1-Fz ka” value worked out at 169000 M⁻¹ s⁻¹ and the “Biacore human ROR1-Fz kd” value is 0.000275 s⁻¹.

B3: SRP2196-C03 (antibody, V domains shown)
VH: EVQLVESGGGLVQPGGSLRLSCAASGFNITGYYIHWVRQAPGKGLEWVGQISPNSGSTYSADSVKGRFTISADTSKNTAYLQMSSLRAEDTAVYYCARDSRRYVLSWDYWGQGTLVTVSS
VL: QAVVTQESALTTSPGETVTLTCRSSTGAVTTSNYANWVQEKPDHLFTGLIGGTNKRAPGVPARFSGSLIGDKAALTITGAQTEDEAIYFCALWYSNLWVFGGGTKLTVL
Turning to B3, the “TM2 (° C.)” value in series [3] came to 69 °C. Moreover, in series [4], the “Biacore human ROR1-Fz ka” value was found to be 143000 M⁻¹ s⁻¹ and the “Biacore human ROR1-Fz kd” value came to 0.000461 s⁻¹.

B4: SRP2196-C02 (antibody, V domains shown)
VH: EVQLVESGGGLVQPGGSLRLSCAASGFNITGYHIHWVRQAPGKGLEWVGFISPNSGWTYSADSVKGRFTISADTSKNTAYLQMNSLRAEDTAVYYCARDSRRYVRPFDYWGQGTLVTVSS
VL: QAVVTQESALTTSPGETVTLTCRSSTGAVTTSNYANWVQEKPDHLFTGLIGGTNKRAPGVPARFSGSLIGDKAALTITGAQTEDEAIYFCALWYSNLWVFGGGTKLTVL
As to B4, the “TM2 (° C.)” value in series [3] was found to be 67 °C. In series [4], the “Biacore human ROR1-Fz ka” value stood at 119000 M⁻¹ s⁻¹ and the “Biacore human ROR1-Fz kd” value is 0.00036 s⁻¹.

B5: SRP2196-C04 (antibody, V domains shown)
VH: EVQLVESGGGLVQPGGSLRLSCAASGFNITGYYIHWVRQAPGKGLEWVGFIAPLSGSTHNADSVKGRFTISADTSKNTAYLQMNSLRAEDTAVYYCARESRRYVNPWDYWGQGTLVTVSS
VL: QAVVTQESALTTSPGETVTLTCRSSTGAVTTSNYANWVQEKPDHLFTGLIGGTNKRAPGVPARFSGSLIGDKAALTITGAQTEDEAIYFCALWYSNLWVFGGGTKLTVL
Regarding B5, the “TM2 (° C.)” value in series [3] stood at 70 °C. Moreover, in series [4], the “Biacore human ROR1-Fz ka” value was 131000 M⁻¹ s⁻¹ and the “Biacore human ROR1-Fz kd” value turned out to be 0.000704 s⁻¹.

B6: SRP2196-C01 (antibody, V domains shown)
VH: EVQLVESGGGLVQPGGSLRLSCAASGFNIIGYYIHWVRQAPGKGLEWVGSITPLSGATSKADSVKGRFTISADTSKNTAYLQMNSLRAEDTAVYYCARDSRRYIRSWDYWGQGTLVTVSS
VL: QAVVTQESALTTSPGETVTLTCRSSTGAVTTSNYANWVQEKPDHLFTGLIGGTNKRAPGVPARFSGSLIGDKAALTITGAQTEDEAIYFCALWYSNLWVFGGGTKLTVL
Take B6: the “TM2 (° C.)” value in series [3] came to 70 °C. For the same molecule, in series [4], the “Biacore human ROR1-Fz ka” value was 125000 M⁻¹ s⁻¹ and the “Biacore human ROR1-Fz kd” value is 0.000457 s⁻¹.
